{
  "source": "patent US20040147006",
  "key": {"[1]": {"test_system": "phosphorylated T-ag peptide of SEQ ID NO: 15 used in the ATPase assay"}, "[2]": {"test_system": "phosphorylated peptide E1-P1 25 (SEQ ID NO: 18)"}, "[3]": {"test_system": "unphosphorylated peptide E1-P2 25 (SEQ ID NO: 2)"}, "[4]": {"test_system": "unphosphorylated peptide T-2 13 (SEQ ID NO: 3)"}},
  "data": [
    {"substance": "SV40 T-antigen (T-ag)", "values": [
      {"measurement": "ATPase of T-ag (32P-ATP hydrolysis, TLC autoradiography)", "setting": "[1]", "value": "the phosphorylated peptide did not modulate the ATPase of T-ag activity"},
      {"measurement": "ATPase of T-ag (32P-ATP hydrolysis, TLC autoradiography)", "setting": "[2]", "value": "had no effect"},
      {"measurement": "ATPase of T-ag (32P-ATP hydrolysis, TLC autoradiography)", "setting": "[3]", "value": "blocked the degradation of ATP by T-ag"},
      {"measurement": "ATPase of T-ag (32P-ATP hydrolysis, TLC autoradiography)", "setting": "[4]", "value": "this peptide inhibited the ATPase of T-ag"}
    ]}
  ]
}
